The values below are quoted from earlier work in PMC4309608.

As usually defined, the Kd is the constant that tells how readily two partners part at equilibrium.

For one data set, the target named is Met (Homo sapiens) (UniProt P08581).
For data set [1], the target named is E-cadherin (Homo sapiens) (UniProt P12830).
Data set [2] concerns the target TgRON2 (Toxoplasma gondii) (UniProt B6KV60).
UniProt B6KV60, sequence (B6KV60 25-1277): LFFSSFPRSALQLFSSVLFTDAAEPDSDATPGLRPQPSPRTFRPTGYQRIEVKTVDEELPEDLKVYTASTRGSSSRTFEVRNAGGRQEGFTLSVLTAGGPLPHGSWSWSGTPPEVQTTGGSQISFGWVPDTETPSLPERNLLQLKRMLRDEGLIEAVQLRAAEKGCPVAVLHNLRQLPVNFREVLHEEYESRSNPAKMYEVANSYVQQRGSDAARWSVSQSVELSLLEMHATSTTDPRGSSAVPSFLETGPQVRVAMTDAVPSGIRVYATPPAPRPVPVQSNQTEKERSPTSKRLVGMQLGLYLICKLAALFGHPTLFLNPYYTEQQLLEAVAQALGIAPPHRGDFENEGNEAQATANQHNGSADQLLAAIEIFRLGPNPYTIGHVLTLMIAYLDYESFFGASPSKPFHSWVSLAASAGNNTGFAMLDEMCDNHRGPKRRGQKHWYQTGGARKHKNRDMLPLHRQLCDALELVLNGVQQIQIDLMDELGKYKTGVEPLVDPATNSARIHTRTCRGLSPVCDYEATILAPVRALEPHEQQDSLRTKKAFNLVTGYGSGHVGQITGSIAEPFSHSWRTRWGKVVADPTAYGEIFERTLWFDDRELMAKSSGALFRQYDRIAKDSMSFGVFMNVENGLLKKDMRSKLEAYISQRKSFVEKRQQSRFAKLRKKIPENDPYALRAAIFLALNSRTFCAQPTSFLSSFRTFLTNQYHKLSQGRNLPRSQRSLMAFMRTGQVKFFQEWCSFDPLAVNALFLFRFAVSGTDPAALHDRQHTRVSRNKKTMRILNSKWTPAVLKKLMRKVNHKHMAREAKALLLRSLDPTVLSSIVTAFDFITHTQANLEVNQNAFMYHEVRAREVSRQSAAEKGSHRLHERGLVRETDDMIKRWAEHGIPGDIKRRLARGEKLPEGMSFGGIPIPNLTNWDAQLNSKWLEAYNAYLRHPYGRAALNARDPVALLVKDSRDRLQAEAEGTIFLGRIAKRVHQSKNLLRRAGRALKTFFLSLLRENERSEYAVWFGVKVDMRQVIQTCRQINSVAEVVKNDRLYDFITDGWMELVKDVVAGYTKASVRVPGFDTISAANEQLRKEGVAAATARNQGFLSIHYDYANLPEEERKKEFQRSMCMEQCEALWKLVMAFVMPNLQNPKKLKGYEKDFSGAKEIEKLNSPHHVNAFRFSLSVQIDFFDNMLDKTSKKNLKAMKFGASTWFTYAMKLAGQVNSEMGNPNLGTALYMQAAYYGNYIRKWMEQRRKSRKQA

UniProt P08581, sequence (P08581 25-932): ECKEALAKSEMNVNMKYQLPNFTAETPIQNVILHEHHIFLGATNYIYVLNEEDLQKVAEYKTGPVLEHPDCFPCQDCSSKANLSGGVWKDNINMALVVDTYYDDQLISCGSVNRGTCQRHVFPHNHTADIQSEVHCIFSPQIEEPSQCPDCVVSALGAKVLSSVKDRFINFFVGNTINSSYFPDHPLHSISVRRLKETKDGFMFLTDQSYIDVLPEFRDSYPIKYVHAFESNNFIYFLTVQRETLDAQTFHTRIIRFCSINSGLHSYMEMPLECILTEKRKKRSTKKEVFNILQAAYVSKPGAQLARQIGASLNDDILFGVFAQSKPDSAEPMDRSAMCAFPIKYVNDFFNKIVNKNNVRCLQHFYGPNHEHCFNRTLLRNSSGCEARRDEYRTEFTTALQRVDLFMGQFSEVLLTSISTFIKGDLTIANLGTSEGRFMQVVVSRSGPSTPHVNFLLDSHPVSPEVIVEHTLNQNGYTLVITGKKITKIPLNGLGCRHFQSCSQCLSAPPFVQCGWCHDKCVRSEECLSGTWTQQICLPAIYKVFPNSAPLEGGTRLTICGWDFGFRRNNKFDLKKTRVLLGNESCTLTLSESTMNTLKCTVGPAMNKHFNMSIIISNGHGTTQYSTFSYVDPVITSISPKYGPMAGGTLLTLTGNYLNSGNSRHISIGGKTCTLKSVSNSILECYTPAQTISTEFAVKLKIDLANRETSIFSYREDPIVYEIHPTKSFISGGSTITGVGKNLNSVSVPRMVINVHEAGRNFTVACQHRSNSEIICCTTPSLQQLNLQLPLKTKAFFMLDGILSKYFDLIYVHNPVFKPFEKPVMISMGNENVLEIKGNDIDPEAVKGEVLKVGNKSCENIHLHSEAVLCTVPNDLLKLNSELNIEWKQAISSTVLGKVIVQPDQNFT
UniProt P12830, sequence (P12830 155-709): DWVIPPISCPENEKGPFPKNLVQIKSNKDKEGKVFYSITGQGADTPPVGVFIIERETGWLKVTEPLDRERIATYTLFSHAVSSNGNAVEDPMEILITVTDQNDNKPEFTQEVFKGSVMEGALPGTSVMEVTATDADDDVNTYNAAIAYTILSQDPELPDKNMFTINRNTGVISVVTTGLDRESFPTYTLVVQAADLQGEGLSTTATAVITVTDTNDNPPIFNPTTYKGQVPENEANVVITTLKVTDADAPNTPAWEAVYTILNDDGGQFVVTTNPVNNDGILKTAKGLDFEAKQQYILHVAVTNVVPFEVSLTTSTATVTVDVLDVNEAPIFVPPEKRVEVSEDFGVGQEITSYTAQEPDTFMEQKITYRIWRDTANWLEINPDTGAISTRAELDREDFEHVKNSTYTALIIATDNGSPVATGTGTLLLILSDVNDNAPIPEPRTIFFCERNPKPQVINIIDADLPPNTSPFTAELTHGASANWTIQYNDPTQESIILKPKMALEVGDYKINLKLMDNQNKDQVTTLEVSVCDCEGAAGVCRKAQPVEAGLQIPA

InlB (from UniProt P0DQD3): the Kd in the data set with Met (Homo sapiens) was 25 nM.

As for InlA (from UniProt P0DJM0), the Kd in data set [1] was 8000 nM.

As to TgAMA1 (from UniProt B6KAM0), the Kd in data set [2] is 15 nM.
